Reference: article PMC11870394

Biological target: RSV prefusion F (PR-DM) (respiratory syncytial virus A) (UniProt P03420)
Assay: cryo-EM structure

RSV prefusion F (PR-DM) (from UniProt P03420) (complex)
stoichiometry N: 3
